Reference: PMC12528898 (The Journal of Biological Chemistry, 2025)
Each block holds one binder with its values, some of them ahead of it.

Molecular target: T1, mNeon PPM1H (full-length PPM1H with mNeon inserted into loop 1 at position 125) (human, UniProt Q9ULR3 1-514)
T1 construct: PPM1H phosphatase, human, full length; mNeon inserted into loop 1 (residues 115-133) at position 125; the plasmid is pET15b His SUMO mNeon PPM1H; His-SUMO removed by Ulp1 before gel filtration; also called WT PPM1H; HisSUMO-mNeon PPM1H; not shown: mNeon, internal (loop 1, at position 125), kept
T1 sequence (looked up): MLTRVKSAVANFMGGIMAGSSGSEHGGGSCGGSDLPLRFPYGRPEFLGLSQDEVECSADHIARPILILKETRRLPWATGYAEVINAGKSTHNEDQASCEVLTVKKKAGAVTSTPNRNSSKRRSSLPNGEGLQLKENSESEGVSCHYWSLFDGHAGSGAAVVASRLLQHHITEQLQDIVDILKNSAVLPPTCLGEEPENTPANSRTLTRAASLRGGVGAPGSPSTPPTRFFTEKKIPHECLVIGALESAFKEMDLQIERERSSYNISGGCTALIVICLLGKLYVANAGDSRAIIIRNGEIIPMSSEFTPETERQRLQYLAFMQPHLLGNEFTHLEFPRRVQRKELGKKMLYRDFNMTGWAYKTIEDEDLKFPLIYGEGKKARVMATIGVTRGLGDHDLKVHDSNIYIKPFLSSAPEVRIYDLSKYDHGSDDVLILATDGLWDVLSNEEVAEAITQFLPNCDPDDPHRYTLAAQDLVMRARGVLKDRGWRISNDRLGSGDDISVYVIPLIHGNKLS
Experiment: MST; unlabelled Rab protein (16 serial dilutions) titrated against 100 nM fluorescent mNeon PPM1H variant; 30 min in the dark; Monolith NT.115; three independent measurements with different protein preparations
Settings: both partners purified

Kd: 1000 nM
B2: Thiophosphorylated His Rab8A Q67L (natural protein, human, UniProt P61006 1-207, looked up)
chain: MAKTYDYLFKLLLIGDSGVGKTCVLFRFSEDAFNSTFISTIGIDFKIRTIELDGKRIKLQIWDTAGLERFRTITTAYYRGAMGIMLVYDITNEKSFDNIRNWIRNIEEHASADVEKMILGNKCDVNDKRQVSKERGEKLALDYGIKFMETSAKANINVENAFFTLARDIKAKMDKKLEGNSPQGSNQGVKITPDQQKRSSFFRCVLL
modifications: thiophosphorylated with ATPγS by MST3 kinase (fully modified by PhosTag gel); the residue is not given
notes: Rab8A GTPase, full length, Q67L, thiophosphorylated form of m5; also called Thio-pRab8A (Q67L); thiophosphorylated Rab8A; source: E. coli, purified (TALON, Superdex 75); thiophosphorylated in vitro overnight at 4 °C by His-MST3 kinase with ATPγS

Kd: 7400 nM
B4: Rab12 Q101L (full length, nonprenylated, nonphosphorylated) (natural protein, human, UniProt Q6IQ22-2 1-244, looked up)
chain: MDPGAALQRRAGGGGGLGAGSPALSGGQGRRRKQPPRPADFKLQVIIIGSRGVGKTSLMERFTDDTFCEACKSTVGVDFKIKTVELRGKKIRLQIWDTAGLERFNSITSAYYRSAKGIILVYDITKKETFDDLPKWMKMIDKYASEDAELLLVGNKLDCETDREITRQQGEKFAQQITGMRFCEASAKDNFNVDEIFLKLVDDILKKMPLDILRNELSNSILSLQPEPEIPPELPPPRPHVRCC
notes: also called His SUMO Rab12 (full length) Q101L; source: E. coli, purified (TALON, Ulp1 cleavage, Superdex 200), 20 μM GTP in all buffers

Continued, binder first:

B1: His Rab8A Q67L (full length, nonprenylated, nonphosphorylated) (natural protein, human, UniProt P61006 1-207, looked up)
chain: MAKTYDYLFKLLLIGDSGVGKTCVLFRFSEDAFNSTFISTIGIDFKIRTIELDGKRIKLQIWDTAGLERFRTITTAYYRGAMGIMLVYDITNEKSFDNIRNWIRNIEEHASADVEKMILGNKCDVNDKRQVSKERGEKLALDYGIKFMETSAKANINVENAFFTLARDIKAKMDKKLEGNSPQGSNQGVKITPDQQKRSSFFRCVLL
notes: subcloned from HA-Rab8A (DU35414) into pET14b; also called Rab8A-6XHis; unphosphorylated Rab8A; source: E. coli, purified (TALON, Superdex 75), 20 μM GTP in all buffers
Kd: 1400 nM

B3: Rab10 Q68L (full length, nonprenylated, nonphosphorylated) (natural protein, human, UniProt P61026 1-200, looked up)
chain: MAKKTYDLLFKLLLIGDSGVGKTCVLFRFSDDAFNTTFISTIGIDFKIKTVELQGKKIKLQIWDTAGLERFHTITTSYYRGAMGIMLVYDITNGKSFENISKWLRNIDEHANEDVERMLLGNKCDMDDKRVVPKGKGEQIAREHGIRFFETSAKANINIEKAFLTLAEDILRKTPVKEPNSENVDISSGGGVTGWKSKCC
notes: also called His SUMO Rab10 (full length) Q68L; untagged Rab10 Q68L; source: E. coli, purified (TALON, Ulp1 cleavage, Superdex 200), 20 μM GTP in all buffers
Kd: 1300 nM
